# In PMC4890538:
# How the values were obtained:
# [1] = molecular target: recombinant Glutathione-S-Transferase (GST) tagged PfLDH (Plasmodium falciparum lactate dehydrogenase) (Plasmodium falciparum)
# [2] = molecular target: recombinant Glutathione-S-Transferase (GST) tagged PfLDH (Plasmodium falciparum lactate dehydrogenase) (Plasmodium falciparum); experiment: fluorescence polarisation
# Sequence of recombinant Glutathione-S-Transferase (GST) tagged PfLDH (Plasmodium falciparum lactate dehydrogenase) (Plasmodium falciparum) (Q27743 whole entry): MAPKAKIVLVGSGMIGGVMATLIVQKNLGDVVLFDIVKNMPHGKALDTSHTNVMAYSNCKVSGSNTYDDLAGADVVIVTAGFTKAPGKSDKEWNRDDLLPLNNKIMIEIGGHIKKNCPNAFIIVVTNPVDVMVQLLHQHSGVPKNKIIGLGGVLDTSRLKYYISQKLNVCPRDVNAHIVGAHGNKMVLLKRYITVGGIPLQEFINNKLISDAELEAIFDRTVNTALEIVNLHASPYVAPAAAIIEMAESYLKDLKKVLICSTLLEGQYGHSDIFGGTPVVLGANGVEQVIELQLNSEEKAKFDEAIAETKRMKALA
Binder,EC50 [1] [nM],Kd [2] [nM]
"HWSAN (not fully specified) [Cy(HWSAN-click), biotin tagged]",23.4,–
"HWSAN (not fully specified) [Cy(HWSAN-click), fluorescein tagged]",–,40.6
